Data as given in EP1073891B1, “METHOD OF PREDICTING RECEPTOR MODULATING ACTIVITY” (Duke University, priority 1998, dated 1999).

Biological target: T1, ER3X (D538N/E542Q/D545N) (Homo sapiens, UniProt P03372, D538N/D545N/E542Q)
T1 construct: expressed in transfected cells
T1 sequence (P03372 1-595 D538N/E542Q/D545N): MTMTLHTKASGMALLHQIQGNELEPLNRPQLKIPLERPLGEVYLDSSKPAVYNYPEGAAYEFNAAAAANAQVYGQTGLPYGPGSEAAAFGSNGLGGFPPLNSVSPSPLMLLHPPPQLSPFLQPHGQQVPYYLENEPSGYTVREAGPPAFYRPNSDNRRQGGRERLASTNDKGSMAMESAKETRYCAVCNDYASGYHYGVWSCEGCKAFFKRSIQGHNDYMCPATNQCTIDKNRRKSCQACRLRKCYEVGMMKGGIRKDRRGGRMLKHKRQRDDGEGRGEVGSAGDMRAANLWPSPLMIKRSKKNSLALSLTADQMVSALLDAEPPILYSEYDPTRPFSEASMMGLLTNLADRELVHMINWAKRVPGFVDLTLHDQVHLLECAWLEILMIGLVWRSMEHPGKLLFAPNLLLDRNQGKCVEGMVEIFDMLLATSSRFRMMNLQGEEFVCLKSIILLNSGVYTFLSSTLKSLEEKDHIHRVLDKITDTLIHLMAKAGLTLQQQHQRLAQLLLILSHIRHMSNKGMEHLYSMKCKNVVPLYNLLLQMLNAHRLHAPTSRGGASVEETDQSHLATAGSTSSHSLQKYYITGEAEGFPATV
Test: Mammalian two-hybrid with ERα AF-2 mutants (Examples 4.3, 101.3)
Assay type: cell-based
Conditions: mammalian two-hybrid (Fig. 9)
Description: Peptide sequences representing each class was fused to the DNA binding domain (DBD) of the yeast transcription factor Ga14. HepG2 cells were then transiently transfected with expression vectors for ERα-VP16 and the Gal4-peptide fusion proteins. In addition, a luciferase reporter construct under the control of 5 copies of a Ga14 upstream enhancer element was also transfected along with a pCMV-β galactosidase vector to normalize for transfection efficiency. Transfection of the Ga14 DBD alone is included as control. Cells were then induced with various ligands as indicated in the figure and assayed for luciferase activity and β galactosidase activity. Normalized response was obtained by dividing the luciferase activity by the β galactosidase activity.
Three ERα mutants were compared with wild-type ERα. ER-LL was characterized by mutations L540A/L541A. Mutant ER3X was characterized by mutations D538N/E542Q/D545N. Finally, mutant ER-535 STOP was truncated after residue V535. […] Experimental design is the same as in figure 7 except that either (A) ER3X (B) ERLL or (C) ER535-stop was analyzed for binding to conformation sensitive peptides.
To test whether different LXXLL motif peptides interact within the same region of ER, mammalian two hybrid assays were used. Selected peptide sequences and different ER mutants (ER-LL, ER-3X, ER-535 STOP) were expressed as fusion proteins to Gal4DBD and VP16 (TAD), respectively.

interaction with the ER3X mutant receptor	Sequence
loss of the tamoxifen specificity	SSPGSREWFKDMLSR [α/β V]
loss of the tamoxifen specificity	SSWDMHQFFWEGVSR [α/β III]
largely unaffected	SSLTSRDFGSWYASR [α II]
retains some ability to engage	SSNHQSSRLIELLSR [α/β I]
